In paper doi:10.1101/791277:

Key:
p85α nSH2, 325-430 = p85α nSH2, 325-430 (UniProt P27986); experiment: fluorescence polarization titration; details: reference: unphosphorylated p85β peptide; sites Y599
p85β nSH2, 312-425 = p85β nSH2, 312-425 (UniProt O08908); experiment: fluorescence polarization titration; details: reference: unphosphorylated p85β peptide; sites Y599
Chain of p85β nSH2, 312-425 (O08908 whole entry, looked up, tested part not stated): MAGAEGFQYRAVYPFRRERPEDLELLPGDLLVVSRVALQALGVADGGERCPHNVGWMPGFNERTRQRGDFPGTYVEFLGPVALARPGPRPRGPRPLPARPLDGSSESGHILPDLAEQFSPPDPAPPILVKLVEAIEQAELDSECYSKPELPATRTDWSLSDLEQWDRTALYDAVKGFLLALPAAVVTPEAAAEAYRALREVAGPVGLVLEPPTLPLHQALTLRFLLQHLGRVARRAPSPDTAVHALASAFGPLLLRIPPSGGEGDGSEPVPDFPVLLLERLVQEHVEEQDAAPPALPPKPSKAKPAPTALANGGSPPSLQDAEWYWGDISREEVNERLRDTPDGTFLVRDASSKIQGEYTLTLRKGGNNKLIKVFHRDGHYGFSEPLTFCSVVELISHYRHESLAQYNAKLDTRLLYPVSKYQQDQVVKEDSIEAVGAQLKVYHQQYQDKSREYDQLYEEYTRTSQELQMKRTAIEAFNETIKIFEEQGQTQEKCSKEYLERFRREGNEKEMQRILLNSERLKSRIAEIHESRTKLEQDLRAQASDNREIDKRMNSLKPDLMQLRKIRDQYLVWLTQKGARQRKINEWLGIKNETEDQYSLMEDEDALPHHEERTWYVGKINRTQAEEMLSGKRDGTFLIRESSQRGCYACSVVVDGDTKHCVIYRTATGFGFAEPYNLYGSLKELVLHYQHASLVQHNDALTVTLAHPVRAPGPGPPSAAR

Chain of p85α nSH2, 325-430 (P27986 whole entry, looked up, tested part not stated): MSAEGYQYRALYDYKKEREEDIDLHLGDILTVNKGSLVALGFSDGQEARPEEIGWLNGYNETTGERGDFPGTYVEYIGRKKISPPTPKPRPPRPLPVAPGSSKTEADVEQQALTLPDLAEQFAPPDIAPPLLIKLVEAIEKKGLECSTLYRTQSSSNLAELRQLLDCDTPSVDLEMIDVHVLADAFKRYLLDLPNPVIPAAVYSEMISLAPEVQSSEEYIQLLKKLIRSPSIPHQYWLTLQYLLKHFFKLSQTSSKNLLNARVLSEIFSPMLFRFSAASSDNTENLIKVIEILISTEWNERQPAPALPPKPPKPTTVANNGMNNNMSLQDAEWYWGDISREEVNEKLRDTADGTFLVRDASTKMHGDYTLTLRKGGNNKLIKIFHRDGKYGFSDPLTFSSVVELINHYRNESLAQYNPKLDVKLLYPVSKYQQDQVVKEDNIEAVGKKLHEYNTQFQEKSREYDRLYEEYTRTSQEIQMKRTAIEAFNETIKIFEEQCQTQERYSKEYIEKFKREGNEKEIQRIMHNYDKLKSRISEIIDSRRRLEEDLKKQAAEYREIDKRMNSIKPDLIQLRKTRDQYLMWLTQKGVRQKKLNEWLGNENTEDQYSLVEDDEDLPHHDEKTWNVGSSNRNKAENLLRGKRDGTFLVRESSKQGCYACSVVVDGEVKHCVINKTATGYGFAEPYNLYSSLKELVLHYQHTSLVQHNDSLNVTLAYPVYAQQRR
Chain of p85β (O08908 312-425, change not shown): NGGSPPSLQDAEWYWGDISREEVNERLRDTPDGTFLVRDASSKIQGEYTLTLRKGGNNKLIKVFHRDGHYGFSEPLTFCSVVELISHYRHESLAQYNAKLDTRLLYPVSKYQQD

- binding against the reference (p85α nSH2, 325-430): gained
- binding against the reference (p85β nSH2, 312-425): gained
Substance: p85β (from UniProt O08908) phospho-p85β peptide
